Measured values as given in patent US11739161B2, “Methods for treating and diagnosing prostate cancer” (Tufts Medical Center, Inc., priority 2017, dated 2023).

Tests used:
Assay type in all cases: cell-based, human
[1] = tested on: AKT and S6 phosphorylation in DU145 cells; experiment: RNASE4-induced phosphorylation of AKT and S6 (immunoblot); settings: serum-starved DU145, RNASE4 1 μg/ml, time course
Method: FIGS. 10A-E. RNASE4 induces prostate cancer cell proliferation and phosphorylation of AKT and S6. (A and B) Exogenous RNASE4 (1 μg/ml) stimulates cell proliferation (A) and cell cycle progression (B) of DU145 cells cultured in the presence of 2% FBS. Cell numbers were determined by MTT assay. Cell cycle status was determined by flow cytometry after 24 hour incubation with RNASE4. (C) Time course of AKT and S6 phosphorylation of serum-starved DU145 cells by RNASE4 (1 μg/ml). Left panels, immunoblots; right panels, quantification of p-AKT and p-S6 normalized to total AKT and S6 by Image J analysis. […] Cells were pre-incubated with the inhibitors at the indicated concentrations for 1 hour prior to be stimulated by 1 μg/ml of RNASE4 for 5 minutes. Top panels, immunoblots; bottom panels, Image J quantification of p-AKT and p-S6 normalized to total AKT and S6. (E) Effect of AKT inhibitor MK-2206, PI3K inhibitors Wortmannin and LY294002, and mTOR inhibitor Rapamycin on RNASE4-induced cell proliferation. DU145 cells were serum-starved overnight, incubated with the inhibitors for 1 hour, and then treated with RNASE4 (1 μg/ml) for three days. Cell numbers were determined by MTT assay. Data shown are from a representative experiments in triplicates of 3 independent repeats. Error bars indicate SEM. **P≤0.01, by unpaired two-tailed Student's t test.
(§1) FIGS. 12A-F. RNASE4 induces AXL phosphorylation. (A) Human phospho-receptor tyrosine kinase (RTK) antibody array analysis. Serum-starved DU145 cells were treated with or without 1 μg/ml of RNASE4 for 5 minutes. A total of 1.5 mg cell lysate protein was blotted on each array membrane. […] (B) Immunoblot analysis of RNASE4-stimulated AXL phosphorylation. DU145 cells were serum-starved overnight and treated with 1 μg/ml of RNASE4 for the indicated time. Cell lysates were analyzed by antibodies against total AXL and phospho-AXL, with β-actin as the loading control. Left panels, immunoblots; right panel, Image J quantification of p-AXL normalized to total AXL. (C) Immunoblot analysis of phospho-AXL in response to stimulation by ANG, RNase A, and RNASE4. DU145 cells were serum-starved overnight and treated with 1 μg/ml of ANG, RNase A, or RNASE4 for 15 minutes. Left panels, immunoblots; right panel, quantification. (D) Effect of AXL inhibitor R428 on RNASE4-induced cell proliferation. Serum-starved DU145 cells were incubated with 1 or 3 μM R428 for 3 hours and then stimulated by 1 μg/ml of RNASE4 for 3 days. Cell numbers were determined by MTT assay. Data shown are means±SEM of a representative experiment (in triplicates) of 3 independent repeats. **P≤0.01 and ***P≤0.001, by unpaired two-tailed Student's t test. (E) Effect of AXL inhibitor R428 on RNASE4-induced AKT and P6 phosphorylation. Serum-starved DU145 cells were incubated with 1 or 3 μM R428 for 3 hours and then stimulated by 1 μg/ml of RNASE4 for 5 minutes. Cell lysates were analyzed for AKT and P6 phosphorylation by immunoblotting. Top panels, immunoblots; bottom panels, quantification of phospho-AKT and phospho-S6 by Image J analyses normalized to total AKT and P6, respectively. (F) Schematic presentation of proposed involvement of AXL in RNASE4-stimulated cellular events.

DU145 cells [2] = experiment: RNASE4 knockdown, cell proliferation (Coulter counter); settings: DU145, exogenous RNASE4 1 μg/ml
Source text: (§2) FIGS. 14A-D. RNASE4 knockdown inhibits DU145 cell proliferation in vitro and colony formation in soft agar. (A) Immunoblot analysis of RNASE4 in DU145 cells stably transfected with shControl, shRNASE4-1, and shRNASE4-2. (B) qRT-PCR analysis of RNASE4 mRNA normalized to GAPDH in DU145 cells stably transfected with shControl, shRNASE4-1, and shRNASE4-2. (C) Effect of RNASE4 knockdown on cell proliferation. Cell numbers were counted by Coulter counter. Exogenous RNASE4, when presented, was at the concentration of 1 μg/ml. Data shown are from a representative experiment in triplicates of 3 independent experiments. (D) Effects of RNASE4 knockdown on colonies formation and growth of DU145 cells in soft agar. The same numbers of control and RNASE4 knockdown cells were seeded in soft agar, and grown in the absence or presence of 1 μg/ml of RNASE4 for 14 days. Colonies were counted and size measured on a Nikon Eclipse ti microscope. Top panels, representative images of colonies; scale bars=100 μm. Bottom panels, quantification of DU145 cell colonies and sizes in soft agar. Data shown are means±SEM of five randomly selected fields per dish from a representative experiment. **P≤0.01 and ***P≤0.001, by two-tailed Student's t test.
(§3) Lentiviral mediated shRNA system (pGIPZ, Open Biosystems) was used to generate control and RNASE4 knockdown cell lines. […]

[3] = tested on: AXL phosphorylation in DU145 cells; experiment: AXL phosphorylation (phospho-RTK array, immunoblot); settings: serum-starved DU145, 1 μg/ml protein
Method: as §1
Human Phospho-RTK Arrays were purchased from R&D Systems. […] Protein concentrations were quantified by Bradford Assay and 1.5 mg cell lysate was used per array. Pixel densities on were analyzed by ImageJ. […]

DU145 cells [4] = experiment: RNASE4 knockdown, colony formation in soft agar; settings: DU145, exogenous RNASE4 1 μg/ml, 14 days
Source text: as §2, §3

B1: RNASE4: recombinant human RNASE4 protein from pET11 expression in E. coli, purified by reversed-phase HPLC; added exogenously (protein, UniProt P34096 29-147, looked up)
Ribonuclease 4: QDGMYQRFLRQHVHPEETGGSDRYCNLMMQRRKMTLYHCKRFNTFIHEDIWNIRSICSTTNIQCKNGKMNCHEGVVKVTDCRDTGSSRAPNCRYRAIASTRRVVIACEGNPQVPVHFDG
activation (phosphorylation) of AKT and S6 [1]: rapidly and continuously activated
rescue of the effect of RNASE4 knockdown on cell proliferation (DU145 cells [2]): able to rescue
phosphorylation of AXL [3]: induced phosphorylation
rescue of the effect of RNASE4 knockdown on colony formation (DU145 cells [4]): able to rescue
